From PMC9972897 (Science immunology, 2023)

B1: fp.001 (antibody, V domains shown)
VH: VQLVESGGGVVQPGRPLRLSCSGSGFIFSNYAMHWVRQAPGKGLEWVAIISFDARNKRYADSVEGRFTISRDNSKNILYLQMNSLRLEDSAVYFCARDLFLSDYDNGVYDPTRGGFDYWGQGTLVTVSS
VL: EIVMTQSPATLSLSPGERATLSCRASQSVNNRLAWYQQKLGQPPRLLISGASTRATGIPARFTGSGSGTEFTLTISSLQSEDFAVYYCQQYHDWPLLSFGGGTKVEIK
B2: fp.002 (antibody, V domains shown)
VH: VQLVESGGGVVQPGTSLRLSCAGSGFNFDNYAIHWVRQAPGQGLEWVAIISYEARNKKYAGSVTGRFSISRDNSKSMVYLQMDSLRGEDTAVYYCARDLFLSDYDRSGYDPTRGGFDLWGQGTLVTVSS
VL: EIVMTQSPATLSVSPGERATLSCRASQSVSSSLAWYQHKLGQAPRLLIYGASTRATGIPGRFSGSGSGTEFTLTISSLQSEDVAIYYCQQYGDWPLVTFGGGTKVEIK
B3: fp.003 (antibody, V domains shown)
VH: VQLVESGGGVVQPGTSLRLSCTASGFSFSNYAMHWVRQAPGKGLEWVAIISFDTRNKEFADSVKGRFSISRDNSKNSLNLQMNSLRPEDTGVYYCARDLFLSDYDSRGYEPSRGGFDYWGQGTLVTVSS
VL: EIVMTQSPATLSVSPGERATLSCRASQSVSSSLAWYQQKLGQPPRLLIYGASTRATGIPARFSGSGSGTEFTLTISSLKSEDSAVYYCQQYNDWPLLSFGGGTKVEIK
B4: fp.004 (antibody, V domains shown)
VH: VQLVESGGGVVQPGTSLRLSCVASGFTFSNYAMHWVRQAPGKGLEWVAIISFDTRNTASAASVKGRFNISRDNSKNSLYLQMNSLRPEDTGVYYCARDLFLSDYDSRGYDPITGGFDCWGQGTLVTVSS
VL: EIVMTQSPAALSVSPGEGATLSCRASQSVGSRLAWYQQKLGRPPRLLIYGASTRATGIPARFSGSGSGTEFTLTISSLQSEDFAVYYCQQYNDWPLLTFGGGTKVKIK
B5: fp.005 (antibody, V domains shown)
VH: VQLVESGGGVVQPGNSLRLSCAASGFRFNNYAMHWVRQAPGKGLEWVAIISYEARNEKYADSVKGRFSISRDNAKNTLYLQMNSLRADDTGVYYCARDLFLSDYDTSGYDRTRGGFDYWGQGALVTVSS
VL: EIVMTQSPATLSVSPGERATLSCRASQSVSNGLAWYQHRFGQPPRLLIYGASTRATGIPTRFSGSGSGTEFTLTISSLQSEDFAVYYCQQYDDWPLITFGGGTKVEIK
B6: fp.008 (antibody, V domains shown)
VH: VQLVESGGGVVQPGRSLRLSCRASGFRFNNYAMHWVRQAPGKGLEWVAIISYEARNEKYAASVKGRFSISRDNAKNTLYLQMNSLRPEDTAIYYCARDVFLSDYDQSGYDVTRGGFDYWGQGTLVTVSS
VL: EIVMTQSPATLSVSPGESATLSCRASQSVSSSLAWYQHKFGQAPRLLIYGASTRATGIPDRFSGSGSGMEFTLTISSLQSEDVAIYYCQQYGDWPLVTFGGGTKVEIK
B7: fp.010 (antibody, V domains shown)
VH: EVQLLESGGGLVQPGGSLRLSCAASGFTFSTYAMNWVRQAPGKGLEWVSAISSSGLSTQYADSVRGRFTISRDTSKNTLYLHMNSLRAGDTAVYYCAKVEYSGYDPRGPFDSWGQGTLVTVSS
VL: DIQMTQSPSTLSASVGDRVTITCRASQSISGWLAWYQQKPGRAPKLLIYKASSLERGVPSRFSGSGSGTEFTLTISSLQPDDFATYYCQEYSSYPLCTFGQGTKLEIK
B8: fp.011 (antibody, V domains shown)
VH: EVQLLESGGGLVQPGGSLRLSCAGSGFTFNNYAMTWVRQAPGRGLEWVSAISGSGGSSHYADSVKGRFTITRDNSKNTLYLQMNSLRAEDTAVYYCAFIDYYSGWSYYYGLDVWGQGTTVTVSS
VL: EIVLTQSPATLSLSPGERATLSCRASQGVRTYVAWYQQKPGQAPRLLIYDASNRATGIPARFSGSGSGTDFTLTISSLEPEDFAVYYCQQRYNWPLCSFGQGTKLEIK
B9: hr2.012 (antibody, V domains shown)
VH: QVQLVQSGAEVKKPGASVKVSCKASGYTFTSHYIHWVRQAPGQGLEWMGIIKPSGGNTIYAQTFQGRVTMTRDTSTSTVYMELRSLTSDDTAVYYCARDQDHGLQRWGQGTLVTVSS
VL: QSVLTQPPSVSAPPGQKVTISCSGSSSNIGNNFVSWYQQLPGTAPKLLIYDNIERPSGIPDRFSGSRSGTSATLGITGLQTGDEADYYCGTWDTSLGAWVFGGGTKVTVL
B10: hr2.013 (antibody, V domains shown)
VH: QVQLVQSGAEVKKPGASVKISCKASGYTFTNNYMNWVRQAPGQGLEWMGIIKPSSGSTIYAHKFQGRVTMTRDTSTSTVYMEVRSLTSEDTAVYYCARDQDHGLQNWGQGTLVTVSS
VL: QSVLTQPPSVSAASGQKVTIYCSGSSSNIASNFVSWYQQFPGTAPKLLIYDNNQRPSGIPDRFSGSRSGTSATLGITGLQTGDEADYYCGTWDTSLGAWVFGGGTKLTVL
B11: hr2.014 (antibody, V domains shown)
VH: QVQLVQSGAEVKKPGASVKVSCKASGYTFTTYAVHWLRQVPGQRPEWIGWINAANGNTKYSEKFQGRVTITRDTSASTAYMDLRSLRSEDTAVYYCARLLVVRDDPYYYGMDVWGQGTTVTVSS
VL: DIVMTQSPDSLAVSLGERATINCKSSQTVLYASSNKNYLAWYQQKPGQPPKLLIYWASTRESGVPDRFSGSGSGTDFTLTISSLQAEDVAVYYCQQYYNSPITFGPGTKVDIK
B12: hr2.015 (antibody, V domains shown)
VH: QVQLVQSGAEVKKPGASVKVSCKASGYTFSSYYVNWVRQAPGQGLEWLGIINRSGSSTIYAQKFQGRVTMTRDTSTSTVYLELSSLRSEDTAVYYCARDQDHALHWGQGTLVTVSS
VL: QSVLTQPPSVSAAPGQKVTISCSGSSSNIGSNYVSWYQQLPGTAPKLLIYDNSERPSGIPDRFSGSRSGTSATLGITGLQTGDEADYYCGTWDTSLSAWVFGGGTKLTVL
B13: hr2.017 (antibody, V domains shown)
VH: EVQLVESGGGLVQPGGSLRLSCAVSGFAFSSSWMHWIRQAPGRGLVWVSRINRDGSTTDYADSVKGRFTISRDNAKATLYLQMNSLRAEDTAVYYCATMGFDYWGQGALVTVSS
VL: DIVMTQSPDSLAVSLGERATINCKSSQNVLYSSNNKNHLSWYQQKPGQPPKLLIYWASTRKSGVPDRFSGSGSGTDFTLTINSLQAEDVAVYYCQQYFSTPNTFGQGTKLEIK
B14: hr2.018 (antibody, V domains shown)
VH: EVQLVESGGGLVKPGGSLRLSCVASGSSVIDAWMNWVRQAPGKGLEWVGRIKSKTNGATTDYAAPVKGRFTISRDDSKNLSYLQMNSLKTEDTGIYYCTTSPLPNFDYWGRGTLVTVSS
VL: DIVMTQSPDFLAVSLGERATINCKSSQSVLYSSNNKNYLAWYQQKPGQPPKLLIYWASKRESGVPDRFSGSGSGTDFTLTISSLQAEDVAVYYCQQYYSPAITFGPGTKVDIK
B15: hr2.019 (antibody, V domains shown)
VH: EVQLVESGGGLVKPGGSLRLSCAASGSSVIDVWMNWVRQAPGKGLEWVGRIKTKASGAATDYGAPVKGRFTISRDDSKNLSYLQMNSLRAEDTGIYYCTTSPLPNFDYWGRGTLVTVSS
VL: DIVMTQSPDFLAVSLGETATINCRSSQSVFYFANNKNYLAWYQQKPGQPPKLLIYWASKRESGVPDRFSGSGSGTDFTLTISSLQAEDVATYYCQQYSSPAITFGPGTKVDIK
B16: hr2.020 (antibody, V domains shown)
VH: EVQLVQSGAEVKKPGESLKISCKGSGYRFASHWIGWVRQMPGKGLQWMGIIYPGDSDTKYSPSFQGQVTISADKSINTVYLHWTSLKASDTAVYYCARRPPHLDGGDSPIRFDHWGQGTLVTVSS
VL: QSVLTQPPSASGTPGQRVTISCSGSRSNIGSNDVYWYQQFPGTAPKLLIYRNNQRPSGVPDRFSGSKSGTSASLAISGLRSEDEADYYCATWDDRLTGVFGGGTKLTVV
B17: hr2.021 (antibody, V domains shown)
VH: QVQLVQSGAEVKKPGASVKVSCKASEAIFSGSYLHWVRQAPGQGLEWMGIITPSGDKTFYAQRFQGRLTMTRDTSTNTLHMHLSGLNSEDTAMYYCARQADKGGWDYWGQGTLVTVSS
VL: EIVLTQSPGTLSLSPGERATLSCRASQSVTSNYVAWYQQKPGQAPRLLIYGASTRATGIPDRFSGGGSGTDFTLTITRLEPEDFAVYYCQQYGSSPPTFTFGPGTKVDIK
B18: hr2.024 (antibody, V domains shown)
VH: QVQLVQSGAEVKKPGASVKVSCKASEDIFTDSYLHWVRQAPGQGLEWMGIITPSGDKTFYAQQFQGRLTMTRDPSTNTLYMFLSGLRSDDTAMYFCARQAEKGGWDYWGHGTLVTVSS
VL: EIVLTQSPGTLSLSPGQRATLSCRSSQTITSNYLAWYQQRPGQAPRLLIYGASIRATGIPDRFSGSGSGTDFTLTISRLEPEDFAVYYCQQYGSSPPTFIFGPGTKVDIK
B19: hr2.025 (antibody, V domains shown)
VH: EVQLVQSGAEVKKPGESLKISCKGSGYSFTNYWIAWVRLMPGKGLEWMGFIFPGDSDTRYSPSFQGQVTISADKSISTAYLQWSSLKASDTAIYYCARRRGNSGNHDPYGMDVWGHGTTVTVSS
VL: not shown
B20: hr2.086 (antibody, V domains shown)
VH: EVQLLESGGGLVQPGGYLRLSCAASGFTFSSYAMSWVRQAPGKGLEWVSVISGGGGSAYYADSVKGRFTISRDNSKNTLYLQMNSLRAEDTAVYYCAKIGMILVFDYWGQGTLVTVSS
VL: EIVLTQSPGTLSLSPGERATLSCRASQSVSNNYLAWYQQKPGQAPRLLISGASSRATGIPDRFSGSGSGTDFTLTISRLEPEDFAVYYCQQYGSSPPTFGQGTKVEIK
B21: hr2.090 (antibody, V domains shown)
VH: EVQLLESGGGLVQPGGSLRLSCAASGVTFSRYAMSWVRQAPGKGLEWVSTISGGGGGTYYADSVKGRFTISRDNSKNTLYLQMNSLRAEDTAVYYCATLLTVPGPYYFEYWGQGTLVTVSS
VL: EIVLTQSPGTLSLSPGERATLSCRASQSVSSSYLAWYQQKPGQAPRLLIYGASSRATGIPDRFSGSGSGTDFTLTISRLESEDFAVYYCQHSRFTFGPGTRVDIK
B22: hr2.094 (antibody, V domains shown)
VH: EVQLVESGGGLVQPGGSLRLSCAASGFTFSTFWMTWVRQAPGKGLEWVANIKSDGSEKYYVDSVKGRFTISRDNAKNSLYLQMNSLRAEDTAVYYCATWFGLHWGQGTLVTVSS
VL: DIVMTQSPDSLAVSLGERASINCKSSQTVLYSSNNKNYLAWYQQKPGQPPKLLIHWASTRDSGVPDRFSGSGSGTDFTLTISSLQAEDVAVYYCQQYHRIPWTFGRGTKVEIK

Assays:
[1] = target: SARS-CoV-2 fusion peptide (FP) coldspot peptide, 812-831 (SARS-CoV-2 (ancestral), biotin-Ahx at the N-terminus; C-terminal amidation)
[2] = target: SARS-CoV-2 S-2P ectodomain trimer (ancestral) (SARS-CoV-2 (ancestral, MN908947), stabilised)

Row | Binder | binding result [1] | binding result [2]
1 | B1 | binds | binds
2 | B2 | binds | binds
3 | B3 | binds | binds
4 | B4 | binds | binds
5 | B5 | binds | binds
6 | B6 | binds | binds
7 | B7 | binds | –
8 | B8 | binds | –
9 | B9 | – | binds
10 | B10 | – | binds
11 | B11 | – | binds
12 | B12 | – | binds
13 | B13 | – | binds
14 | B14 | – | binds
15 | B15 | – | binds
16 | B16 | – | binds
17 | B17 | – | binds
18 | B18 | – | binds
19 | B19 | – | binds
20 | B20 | – | binds
21 | B21 | – | binds
22 | B22 | – | binds
